T1: Human PTK7 Protein, His Tag (Acro Biosystems) (human, UniProt Q13308 31-704)
T1 construct: Bought recombinant protein; also called CCK4; tyrosine-protein kinase-like 7; not shown: His tag
T1 sequence: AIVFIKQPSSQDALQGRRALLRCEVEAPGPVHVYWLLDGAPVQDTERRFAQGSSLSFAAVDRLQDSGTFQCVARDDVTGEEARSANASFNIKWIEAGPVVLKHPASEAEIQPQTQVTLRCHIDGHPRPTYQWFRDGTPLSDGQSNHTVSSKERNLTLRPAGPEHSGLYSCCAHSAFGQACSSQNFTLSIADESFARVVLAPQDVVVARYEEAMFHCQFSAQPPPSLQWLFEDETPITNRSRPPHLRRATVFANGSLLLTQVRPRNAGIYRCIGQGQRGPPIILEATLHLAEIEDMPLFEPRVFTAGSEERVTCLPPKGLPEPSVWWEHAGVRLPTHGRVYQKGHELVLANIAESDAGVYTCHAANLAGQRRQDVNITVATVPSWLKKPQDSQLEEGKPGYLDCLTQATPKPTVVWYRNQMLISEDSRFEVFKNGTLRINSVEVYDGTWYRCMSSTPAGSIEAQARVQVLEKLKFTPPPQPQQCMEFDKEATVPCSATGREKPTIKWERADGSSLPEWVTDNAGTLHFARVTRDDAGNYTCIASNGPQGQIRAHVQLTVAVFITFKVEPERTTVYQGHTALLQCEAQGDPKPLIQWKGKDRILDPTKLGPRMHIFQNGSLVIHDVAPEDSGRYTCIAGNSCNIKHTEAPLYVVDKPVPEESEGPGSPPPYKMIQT

T2: Human PTK7 Protein, His Tag, Acro Biosystems (human, UniProt Q13308 31-704)
T2 construct: Bought recombinant protein; also called CCK4; not shown: His tag
T2 sequence: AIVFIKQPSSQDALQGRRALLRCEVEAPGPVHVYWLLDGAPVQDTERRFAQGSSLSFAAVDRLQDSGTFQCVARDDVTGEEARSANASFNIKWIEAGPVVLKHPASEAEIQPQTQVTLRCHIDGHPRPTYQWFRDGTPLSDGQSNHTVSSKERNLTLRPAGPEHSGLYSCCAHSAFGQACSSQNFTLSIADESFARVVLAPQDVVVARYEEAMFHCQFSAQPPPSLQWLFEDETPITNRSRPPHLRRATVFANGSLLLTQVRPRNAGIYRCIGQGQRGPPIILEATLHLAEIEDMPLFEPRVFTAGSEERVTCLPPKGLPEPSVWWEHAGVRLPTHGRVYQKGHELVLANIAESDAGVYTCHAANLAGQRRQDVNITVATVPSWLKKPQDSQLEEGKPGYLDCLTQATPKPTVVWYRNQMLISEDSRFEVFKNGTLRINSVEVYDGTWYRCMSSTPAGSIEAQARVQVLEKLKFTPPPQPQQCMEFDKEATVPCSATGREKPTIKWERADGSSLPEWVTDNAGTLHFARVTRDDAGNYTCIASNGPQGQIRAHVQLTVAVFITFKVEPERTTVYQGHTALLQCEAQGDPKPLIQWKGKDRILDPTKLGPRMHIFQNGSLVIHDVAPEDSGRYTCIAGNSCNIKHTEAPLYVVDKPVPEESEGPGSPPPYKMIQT

B1: MYT11413 (antibody, V domains shown)
VH: EVQLVESGGGLVQPGGSLRLSCTASGIDLSNYAVIWVRQAPGKGLEWVGIIYTYDTTYYANWAKGRFTISRDTSKNTVYLQMNSLRAEDTAVYFCARSFSDISDLIKLWGQGTLVTVSS
VL: EIVMTQSPSTLSASVGDRVIITCQASQSLYNNKDLAWYQQKPGKAPKLLIYEASKLASGVPSRFSGSGSGAEFTLTISSLQPDDFATYYCLGEFSCGSGDCLHFGQGTKLTVL
notes: MYT9797 LC variant; captured via anti-human Fc
B2: MYT11420 (antibody, V domains shown)
VH: EVQLVESGGGLVQPGGSLRLSCTASGIDLSNYAVIWVRQAPGKGLEWVGIIYTYDTTYYANWAKGRFTISRDTSKNTVYLQMNSLRAEDTAVYFCARSFSDISDLIKLWGQGTLVTVSS
VL: EIVMTQSPSTLSASVGDRVIITCQASQSLYNNKDLAWYQQKPGKAPKLLIYEASKLASGVPSRFSGSGSGAEFTLTISSLQPDDFATYYCLGEFSCGSGACLAFGQGTKLTVL
notes: MYT9797 LC alanine variant; captured via anti-human Fc
B3: MYT11414 (antibody, V domains shown)
VH: EVQLVESGGGLVQPGGSLRLSCTASGIDLSNYAVIWVRQAPGKGLEWVGIIYTYDTTYYANWAKGRFTISRDTSKNTVYLQMNSLRAEDTAVYFCARSFSDISDLIKLWGQGTLVTVSS
VL: EIVMTQSPSTLSASVGDRVIITCQASQSLYNNKDLAWYQQKPGKAPKLLIYEASKLASGVPSRFSGSGSGAEFTLTISSLQPDDFATYYCLGEFSCGSGDCLAFGQGTKLEIK
notes: captured via anti-human Fc
B4: MYT11419 (antibody, V domains shown)
VH: EVQLVESGGGLVQPGGSLRLSCTASGIDLSNYAVIWVRQAPGKGLEWVGIIYTYDTTYYANWAKGRFTISRDTSKNTVYLQMNSLRAEDTAVYFCARSFSDISDLIKLWGQGTLVTVSS
VL: EIVMTQSPSTLSASVGDRVIITCQASQSLYNNKDLAWYQQKPGKAPKLLIYEASKLASGVPSRFSGSGSGAEFTLTISSLQPDDFATYYCLGAFSCGSGDCLAFGQGTKLTVL
notes: as for B2
B5: MYT10885 (antibody, V domains shown)
VH: EVQLVESGGGLVQPGGSLRLSCTASHFSLSNYVMNWVRQAPGKGLEWVGIIDSSGSTYYASWAKGRFTISRDTSKNTVYLQMNSLRAEDTAVYFCARGLYLWGQGTLVTVSS
VL: EIVMTQSPSTLSASVGDRVIITCQSSQSVYNNNLLAWYQQKPGKAPKLLIYYTSNLASGVPSRFSGSGSGAEFTLTISSLQPDDFATYYCQGGYNGNIYAFGQGTKLTVL
notes: MYT9345 variant, His at VH pos 26 (H1 01)
B6: MYT10902 (antibody, V domains shown)
VH: EVQLVESGGGLVQPGGSLRLSCTASGFSLSNYVMNWVRQAPGKGLEWVGIIDSSGSHYYASWAKGRFTISRDTSKNTVYLQMNSLRAEDTAVYFCARGLYLWGQGTLVTVSS
VL: EIVMTQSPSTLSASVGDRVIITCQSSQSVYNNNLLAWYQQKPGKAPKLLIYYTSNLASGVPSRFSGSGSGAEFTLTISSLQPDDFATYYCQGGYNGNIYAFGQGTKLTVL
notes: MYT9345 variant, His at VH pos 57 (H2 08)
B7: MYT10894 (antibody, V domains shown)
VH: EVQLVESGGGLVQPGGSLRLSCTASGFSLSNYVMHWVRQAPGKGLEWVGIIDSSGSTYYASWAKGRFTISRDTSKNTVYLQMNSLRAEDTAVYFCARGLYLWGQGTLVTVSS
VL: EIVMTQSPSTLSASVGDRVIITCQSSQSVYNNNLLAWYQQKPGKAPKLLIYYTSNLASGVPSRFSGSGSGAEFTLTISSLQPDDFATYYCQGGYNGNIYAFGQGTKLTVL
notes: MYT9345 variant, His at VH pos 35 (H1 10)
B8: MYT10887 (antibody, V domains shown)
VH: EVQLVESGGGLVQPGGSLRLSCTASGFHLSNYVMNWVRQAPGKGLEWVGIIDSSGSTYYASWAKGRFTISRDTSKNTVYLQMNSLRAEDTAVYFCARGLYLWGQGTLVTVSS
VL: EIVMTQSPSTLSASVGDRVIITCQSSQSVYNNNLLAWYQQKPGKAPKLLIYYTSNLASGVPSRFSGSGSGAEFTLTISSLQPDDFATYYCQGGYNGNIYAFGQGTKLTVL
notes: MYT9345 variant, His at VH pos 28 (H1 03)
B9: MYT10907 (antibody, V domains shown)
VH: EVQLVESGGGLVQPGGSLRLSCTASGFSLSNYVMNWVRQAPGKGLEWVGIIDSSGSTYYASHAKGRFTISRDTSKNTVYLQMNSLRAEDTAVYFCARGLYLWGQGTLVTVSS
VL: EIVMTQSPSTLSASVGDRVIITCQSSQSVYNNNLLAWYQQKPGKAPKLLIYYTSNLASGVPSRFSGSGSGAEFTLTISSLQPDDFATYYCQGGYNGNIYAFGQGTKLTVL
notes: MYT9345 variant, His at VH pos 62 (H2 13)
B10: MYT10890 (antibody, V domains shown)
VH: EVQLVESGGGLVQPGGSLRLSCTASGFSLSHYVMNWVRQAPGKGLEWVGIIDSSGSTYYASWAKGRFTISRDTSKNTVYLQMNSLRAEDTAVYFCARGLYLWGQGTLVTVSS
VL: EIVMTQSPSTLSASVGDRVIITCQSSQSVYNNNLLAWYQQKPGKAPKLLIYYTSNLASGVPSRFSGSGSGAEFTLTISSLQPDDFATYYCQGGYNGNIYAFGQGTKLTVL
notes: MYT9345 variant, His at VH pos 31 (H1 06)
B11: MYT10906 (antibody, V domains shown)
VH: EVQLVESGGGLVQPGGSLRLSCTASGFSLSNYVMNWVRQAPGKGLEWVGIIDSSGSTYYAHWAKGRFTISRDTSKNTVYLQMNSLRAEDTAVYFCARGLYLWGQGTLVTVSS
VL: EIVMTQSPSTLSASVGDRVIITCQSSQSVYNNNLLAWYQQKPGKAPKLLIYYTSNLASGVPSRFSGSGSGAEFTLTISSLQPDDFATYYCQGGYNGNIYAFGQGTKLTVL
notes: MYT9345 variant, His at VH pos 61 (H2 12)
B12: MYT10908 (antibody, V domains shown)
VH: EVQLVESGGGLVQPGGSLRLSCTASGFSLSNYVMNWVRQAPGKGLEWVGIIDSSGSTYYASWHKGRFTISRDTSKNTVYLQMNSLRAEDTAVYFCARGLYLWGQGTLVTVSS
VL: EIVMTQSPSTLSASVGDRVIITCQSSQSVYNNNLLAWYQQKPGKAPKLLIYYTSNLASGVPSRFSGSGSGAEFTLTISSLQPDDFATYYCQGGYNGNIYAFGQGTKLTVL
notes: MYT9345 variant, His at VH pos 63 (H2 14)
B13: MYT10901 (antibody, V domains shown)
VH: EVQLVESGGGLVQPGGSLRLSCTASGFSLSNYVMNWVRQAPGKGLEWVGIIDSSGHTYYASWAKGRFTISRDTSKNTVYLQMNSLRAEDTAVYFCARGLYLWGQGTLVTVSS
VL: EIVMTQSPSTLSASVGDRVIITCQSSQSVYNNNLLAWYQQKPGKAPKLLIYYTSNLASGVPSRFSGSGSGAEFTLTISSLQPDDFATYYCQGGYNGNIYAFGQGTKLTVL
notes: MYT9345 variant, His at VH pos 56 (H2 07)
B14: MYT10886 (antibody, V domains shown)
VH: EVQLVESGGGLVQPGGSLRLSCTASGHSLSNYVMNWVRQAPGKGLEWVGIIDSSGSTYYASWAKGRFTISRDTSKNTVYLQMNSLRAEDTAVYFCARGLYLWGQGTLVTVSS
VL: EIVMTQSPSTLSASVGDRVIITCQSSQSVYNNNLLAWYQQKPGKAPKLLIYYTSNLASGVPSRFSGSGSGAEFTLTISSLQPDDFATYYCQGGYNGNIYAFGQGTKLTVL
notes: MYT9345 variant, His at VH pos 27 (H1 02)
B15: MYT10909 (antibody, V domains shown)
VH: EVQLVESGGGLVQPGGSLRLSCTASGFSLSNYVMNWVRQAPGKGLEWVGIIDSSGSTYYASWAHGRFTISRDTSKNTVYLQMNSLRAEDTAVYFCARGLYLWGQGTLVTVSS
VL: EIVMTQSPSTLSASVGDRVIITCQSSQSVYNNNLLAWYQQKPGKAPKLLIYYTSNLASGVPSRFSGSGSGAEFTLTISSLQPDDFATYYCQGGYNGNIYAFGQGTKLTVL
notes: MYT9345 variant, His at VH pos 64 (H2 15)
B16: MYT10904 (antibody, V domains shown)
VH: EVQLVESGGGLVQPGGSLRLSCTASGFSLSNYVMNWVRQAPGKGLEWVGIIDSSGSTYHASWAKGRFTISRDTSKNTVYLQMNSLRAEDTAVYFCARGLYLWGQGTLVTVSS
VL: EIVMTQSPSTLSASVGDRVIITCQSSQSVYNNNLLAWYQQKPGKAPKLLIYYTSNLASGVPSRFSGSGSGAEFTLTISSLQPDDFATYYCQGGYNGNIYAFGQGTKLTVL
notes: MYT9345 variant, His at VH pos 59 (H2 10)
B17: MYT10900 (antibody, V domains shown)
VH: EVQLVESGGGLVQPGGSLRLSCTASGFSLSNYVMNWVRQAPGKGLEWVGIIDSSHSTYYASWAKGRFTISRDTSKNTVYLQMNSLRAEDTAVYFCARGLYLWGQGTLVTVSS
VL: EIVMTQSPSTLSASVGDRVIITCQSSQSVYNNNLLAWYQQKPGKAPKLLIYYTSNLASGVPSRFSGSGSGAEFTLTISSLQPDDFATYYCQGGYNGNIYAFGQGTKLTVL
notes: MYT9345 variant, His at VH pos 55 (H2 06)
B18: MYT10893 (antibody, V domains shown)
VH: EVQLVESGGGLVQPGGSLRLSCTASGFSLSNYVHNWVRQAPGKGLEWVGIIDSSGSTYYASWAKGRFTISRDTSKNTVYLQMNSLRAEDTAVYFCARGLYLWGQGTLVTVSS
VL: EIVMTQSPSTLSASVGDRVIITCQSSQSVYNNNLLAWYQQKPGKAPKLLIYYTSNLASGVPSRFSGSGSGAEFTLTISSLQPDDFATYYCQGGYNGNIYAFGQGTKLTVL
notes: MYT9345 variant, His at VH pos 34 (H1 09)

Molecular target: T1, Human PTK7 Protein, His Tag (Acro …)
Experiment: BLI, antibody on anti-human Fc sensor, 50 nM PTK7 at pH 7.4, dissociation at pH 7.4 or 5.4; 2 = substantially similar binding relative to parent

Binding result, binds:
B1
B2
B3
B4

Molecular target: T2, Human PTK7 Protein, His Tag, Acro …
Experiment: BLI (Octet), antibody on anti-human Fc sensor, 50 nM PTK7 at pH 7.4, dissociation at pH 7.4 or 5.4; 2 = substantially similar binding relative to parent

Binding result, binds:
B5
B6
B7
B8
B9
B10
B11
B12
B13
B14
B15
B16
B17
B18

Reference: patent publication US20260209386A1 (MYTHIC THERAPEUTICS, published 2026)
